Measured values published in the MegaScale stability set (Tsuboyama et al. 2023).

B1: HEEH_KT_rd6_0790 (parent)
chain: SEEEEEEWRRAKERGEEIIILGILWKPNDEEAERRIKEALRRV

Variants of: B1
Experiment: folding stability dG (cDNA display proteolysis); higher = more stable
Settings: PBS, room temperature

Folding stability dG [kcal/mol] of substitutions, site by site:
E33: A 1.72; K 1.09; L 1.7; R 1.29; N 1.61; H 1.3; Q 1.31; T 1.98; D 2.01; M 1.7; F 1.66; Y 1.71; G 1.49; V 1.52; I 1.49; W 1.99; S 1.68; P 0.529
L21: F 1.97; T 1.04; A 1.84; N 1.24; I 1.47; K 1.66; S 1.24; V 1.34; D 1.04; R 2.07; E 1.28; Y 1.45; Q 1.84; P 0.723; W 1.26; H 1.88; G 1.27; M 2.35
I19: A 1.33; R 1.77; H 1.43; Q 1.69; P 0.976; S 1.52; E 1.85; L 2.12; Y 2.2; N 1.55; D 0.997; F 2.08; T 2.14; G 1.01; K 1.49; V 2.17; W 2.53; M 2.01
N28: I 0.872; T 1.38; P 1.34; A 1.67; H 1.97; Y 1.9; K 1.45; V 1.1; W 2.05; Q 1.82; S 1.62; L 1.61; G 2.81; E 1.84; M 1.77; D 2.19; R 1.71; F 2.1
I20: T 0.843; D 0.628; A 0.825; E 0.692; N 0.804; S 0.816; W 1.17; R 1.08; F 2.27; G 0.748; M 1.28; Y 1.5; Q 0.945; V 1.84; H 0.981; P 0.587; C 2.07; K 0.813; L 1.35
I23: T 1.16; E 0.981; G 0.931; W 0.765; H 1.2; F 1.26; S 0.659; Q 0.969; D 0.764; L 1.46; V 1.55; P 0.9; K 1.08; Y 0.775; M 1.08; R 0.853; A 0.977; N 0.85
A32: H 0.931; I 1.39; P 0.466; F 0.917; S 1.96; V 1.37; Y 1.07; L 1.41; M 1.26; Q 1.07; E 1.25; W 1.02; K 0.96; G 1.2; T 1.55; D 0.955; R 1.12; N 1.02
W25: H 0.716; L 0.939; E 0.532; M 0.967; I 1.01; Q 0.568; Y 1.25; R 0.67; N 0.423; K 0.664; D 0.518; C 1.26; V 0.885; F 1.4; S 0.662; G 0.809; T 0.615; A 0.981; P 0.549
E30: Y 2.13; H 2.06; V 2.04; P 2.04; N 1.83; D 2.25; T 1.9; M 2.24; K 1.93; R 1.81; S 1.83; I 2.17; F 2.05; L 2.28; W 1.94; A 2.03; Q 1.94; G 1.78
D29: G 1; H 1.28; L 1.01; K 0.951; F 1.28; S 1.42; N 1.39; Y 1.24; M 1.05; Q 1.34; V 1.25; T 0.862; P 1.09; R 1.19; W 1.55; I 0.872; E 1.06; A 1.25
P27: E 1.37; M 1.18; V 1.2; I 1.27; Y 1.22; L 1.15; C 2.1; Q 1.2; A 1.13; W 1.42; D 1.35; H 0.914; S 1.02; N 1.22; F 1.41; R 0.846; T 1.16; G 1.21; K 1.12
K26: R 2.4; T 2.12; P 1.26; A 1.87; W 1.53; F 1.51; I 2.02; V 2.06; Y 1.51; Q 1.64; E 1.26; D 1.26; M 1.7; L 1.65; S 1.99; N 1.6; H 1.46; G 1.52
R35: M 2.2; H 1.61; K 2.09; N 1.62; F 1.38; E 1.68; W 1.56; V 1.48; G 1.32; A 2.21; Y 1.18; Q 2.14; P 0.078; D 1.49; L 2.19; I 1.66; T 1.5; S 1.71
L24: I 1.69; A 1.53; R 1.95; Y 1.72; K 2.14; M 1.79; P 1.39; D 0.729; S 1.67; Q 1.66; E 1.29; T 1.75; F 1.64; W 1.26; H 1.75; N 1.34; G 0.898; V 1.79
I36: H 0.809; A 1.11; L 1.49; K 0.876; N 0.613; Q 0.909; G 1.03; F 1.5; M 1.39; E 0.641; P 0.142; D 0.894
I18: L 1.39; P 0.472; W 1.67; N 1.06; Q 1.3; S 1.17; V 2.15; K 1.68; T 1.84; R 1.3; M 1.42; Y 1.86
R34: L 2.06; I 1.77; F 1.9; E 2.12; M 2.12; T 1.9; Y 1.87; C 2.5; P 0.726; K 2.06; Q 2.14; G 1.63; H 1.73; D 1.64; W 1.92; V 1.87; S 2.02; N 2; A 2.22
E31: W 1.5; M 1.54; G 1.61; Q 1.72; K 1.32; L 1.69; S 1.69; T 1.79; D 2.14; A 1.79; F 1.49; V 1.9; N 1.69; R 1.38; H 1.64; P 0.967; I 1.8; Y 1.56
G22: D 1.29; A 1.37; V 2.1; W 1.93; P 0.681; F 2.59; I 2.28; R 0.712; M 2.3; T 1.4; E 1.12; S 1.19; Q 1.15; Y 1.98; H 1.1; K 0.815; L 2.12; N 1.18
